Bridge positions count the residues as written; N and C are the ends. Side chains are listed from the residue outwards. * marks the point of attachment. Biotin = O=C1N[C@H]2[C@H](CS[C@H]2CCCCC(=O)*)N1; AEEA = NCCOCCOCC(=O)O

Consider one molecule from patent US20140161732A1.

The target of test [1] is T1, KDR expressed on transiently transfected 293H cells (human), P35968. As to the kind of experiment: competition with 125I-VEGF on KDR-transfected 293H cells (mock subtracted), peptide at 30 µM. The following applies: remark: other sources report otherwise.
For test [2], the target named is T1, KDR expressed on transiently …. As to the kind of experiment: competition with 125I-VEGF on KDR-transfected 293H cells (mock subtracted), peptide at 0.3 µM. The following applies: remark: other sources report otherwise.

T1 sequence (P35968 20-1356): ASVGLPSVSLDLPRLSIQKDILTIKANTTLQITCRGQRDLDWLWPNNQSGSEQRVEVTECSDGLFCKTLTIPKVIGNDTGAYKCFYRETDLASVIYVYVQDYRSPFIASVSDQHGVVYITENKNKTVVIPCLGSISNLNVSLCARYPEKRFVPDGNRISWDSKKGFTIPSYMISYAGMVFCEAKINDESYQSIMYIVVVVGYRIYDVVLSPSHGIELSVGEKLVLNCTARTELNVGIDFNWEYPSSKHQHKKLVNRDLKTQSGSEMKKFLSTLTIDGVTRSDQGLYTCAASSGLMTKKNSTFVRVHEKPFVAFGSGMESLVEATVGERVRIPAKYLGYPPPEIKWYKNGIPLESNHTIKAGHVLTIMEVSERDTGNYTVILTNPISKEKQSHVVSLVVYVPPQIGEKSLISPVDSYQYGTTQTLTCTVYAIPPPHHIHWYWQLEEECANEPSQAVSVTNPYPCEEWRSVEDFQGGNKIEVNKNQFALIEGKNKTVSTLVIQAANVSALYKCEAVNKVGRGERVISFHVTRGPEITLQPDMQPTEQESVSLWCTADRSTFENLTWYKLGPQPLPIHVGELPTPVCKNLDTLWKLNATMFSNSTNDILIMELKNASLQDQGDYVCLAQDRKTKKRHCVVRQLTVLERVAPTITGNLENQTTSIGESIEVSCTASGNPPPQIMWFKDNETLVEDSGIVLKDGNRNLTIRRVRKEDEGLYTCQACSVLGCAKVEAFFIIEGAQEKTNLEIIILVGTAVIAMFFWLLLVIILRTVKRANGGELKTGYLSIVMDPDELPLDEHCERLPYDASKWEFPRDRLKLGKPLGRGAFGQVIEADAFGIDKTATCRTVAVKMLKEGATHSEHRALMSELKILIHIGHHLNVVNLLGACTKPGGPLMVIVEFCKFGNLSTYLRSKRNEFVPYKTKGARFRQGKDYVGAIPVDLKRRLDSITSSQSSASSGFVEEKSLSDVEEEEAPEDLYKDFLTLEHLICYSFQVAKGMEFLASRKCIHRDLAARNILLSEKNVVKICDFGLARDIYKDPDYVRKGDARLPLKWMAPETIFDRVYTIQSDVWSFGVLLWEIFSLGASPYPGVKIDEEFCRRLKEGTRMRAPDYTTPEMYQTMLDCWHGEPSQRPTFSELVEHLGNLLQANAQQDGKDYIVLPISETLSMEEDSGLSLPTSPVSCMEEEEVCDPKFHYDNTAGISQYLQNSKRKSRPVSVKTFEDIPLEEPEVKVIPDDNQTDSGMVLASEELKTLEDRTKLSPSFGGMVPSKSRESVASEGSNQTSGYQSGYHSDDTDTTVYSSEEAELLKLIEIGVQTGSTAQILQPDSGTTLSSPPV

Consider Ac-AGPKWCEEDWYYCMITGTGGGK([AEEA-AEEA-Biotin])-NH2 (disulfide 6-13 (inferred)) [biotinylated SEQ ID NO:264 with a JJ spacer], for which the % inhibition of 125I-labeled VEGF binding in test [1] was found to be 48%; in test [2], 24.4%.
